# Experimental data: the DeepSol protein solubility set
# Test: soluble on expression in E. coli; label from the status in PepcDB or PDB records
row,Sequence,soluble on expression in E. coli
1,MPILGHNILKIEFEKLQTLGGKIEVSLRPTIRNLRLGEMHLPSGKVKGIEVDVDYIITYSPEVARASIKVRVFYVPRNKEDIDNILDEWEDRKVLPGELVAEVVNFTTSELMPIAMYIAKEMRIPYPVPLPRAVVRGE,soluble
2,NKDFWIKGMGNFTLAKGRYEVYEEPDYASYGQGYRSRIGQPINFNYGYIAERLFIDENDVANSPSQTSFNGGAMPGDIKYKDLNNDGKITSEDQIFLGYPNQPEITYGFGFSTGYKGFDLSMFFQGNARVSFFIDPRNTSPFVNYDAGGKTGVQQCLDVIAKDHWSEDNRNIYAFWPRLSPTLVENNMQTSTWWMHDGSFIRLKTVELGYTFSQKALKKIGVQSLRLYLTGSNLLTFSKFKLWDAEMGNNGLGYPIQRVYNLGININF,not soluble
3,MGSDKIHHHHHHILFELCFGLAVAQKNLGFIHNDLHSDNIMFKKCQQQFKYYQFHNKFFKVPTWCRETKVIDFARGILKVGKTTYFSDVFKNEGDAGGQYQYLNSQKNKKFNFHFDLARLATTIREFTENKKELQEIDNLLVDWCLNKNGDNFLEMDDDFSLYVMIASTADKCLPKDQIDNKIFRDFLISKEDIPAGEIIY,not soluble
4,MSLKITRIDIHRTDLPVRGGVYRLSGGREYHSYDATIVSIETDTGLTGWGESTPFGSTYIAAHAGGTRAALELLAPAILGMDPRQHDRIWDRMRDTLKGHRDARAALDIACWDIAAQAAGLPLCDMTGGRVAGPVPVISSIGGDTPEAMRAKVARHRAQGFKGHSIKIGASEAEGGPALDAERITACLADRQPGEWYLADANNGLTVEHALRMLSLLPPGLDIVLEAPCASWAETKSLRARCALPLLLDELIQTETDLIAAIRDDLCDGVGLKVSKQGGITPMLRQRAIAAAAGMVMSVQDTVGSQISFAAILHLAQSTPRHLLRCALDTRAMTTAELAEIDAPLRDGGASAPSDPGLGLRVNRDALGTPVKTFGDPIEGHHHHHH,soluble
5,MSLKFYEDGNIPEIPNMYFIYGDGGTGKTSLLKQLKGHKFVFSFDMSSNVLIGDKDVDVVIFEHNDAPNIQAMVEECIIRAIQNAKYQVIVLDNVTALQNLVLENIDNAAKDNRQNYQKLQLWFRDLGTILKESGKTIYATAHQLDNGSSGISGEGRFQADMNEKTFNAFTSMFDLVGRIYLAAGERMIDLDPEKGNHAKNRLDDRKLIKANELIQSEKGEGHHHHHH,soluble
6,MGSDKIHHHHHHAAVKKIIEMGQNDNQVMHQLDILTNRFGGRLIGSDAYENAAEWMVREFKSWGLDVQLEEAGTVPVGFNRGPWFGRLLSDNGMILHFATPSYTSGTKGVQRGHAVMEPRNDEEFQQIKGRLNGAWVLISGKNVGWPIDRSASGDSIRAEIKKENNEIMKKNNDLRRRNWENGEKNEMLPYKEFPGLYYKEMCEAGALGFIQSSTVPIRALYDRKMMNDPNTNFDNLPELPDIKLDEHQFAIIEQMVKERRTFELEFDIRNHFKLGPVKYHNVVASIKGSKYPDEYVIISGHLDAFDVATGGIDCGTGIGPMMEAARMIAKSGAKPKRTILFIGFAGEEFGLLGAQAWVKAHKDKLPKIANLFNRDGGPEPPVGISVPQAMYDDFVKISEPIQKIRPDYPFEVKVREPRKRPTRMGGTDASVFAIEGVPTLGFTTEDFKGYDFDYGEIWHTERDLYTKNIPEYQEHTATVTAIIALGVANLDKQLSREGLYTEE,not soluble
7,MLIGIDVGGTTTDAVLIRNGEVYSTAKVPTEPGDLLKSLLGALDEVSRGVPPEQFERVVFSTTVITNLIAEGKTERVALLLIPGPGVNPASYVFPDSFCIKGAMDYRGREIQPIDEEEVRGTVSRIRDQGFLRVAVVSKFGQRNPSHELRIEEIIREMH,not soluble
8,AHHHHHHGSIWEEILNFEPYRAVEGNYRIWLDKNESPYDLPPQLKEEILEELKRIEFNRYPHITSDPLREALAEFYGLKKENIAVGNGSDELINYLVKMFKGKYIVVTSPTFGMYSFFAKLHGIPVKDIPLKEDFTIDGERIAEEGKAASAIFIASPNNPTGNSQPENEVLKVLDSGRVVILDEAYSEFSGKSFIPKISEYENLVILRTFSKAFGLAGIRCGYMIANEKIIDALYRILPPYNLNSLTMTVAIKMLEHYDIVKRRIKLIVKERERIRREFIEYSYPSEANFLLMKLDAYDYLLKKGIVVRKLSGRLEGHIRVTIGKKWENDELIKALKEFLEECRCG,soluble
9,MGSDKIHHHHHHGCEKEKSHTVLELFSESQSLSPKKDFYVNEDSIAIIEGLSCDGKNLIVNDYHSGCCYTLFDKKSGEYIARFGTIGQGPAELPSPCYGYLTESDFTVFDDQTRIVMKYSLDSLRNSRKKDGSPVRLAQYKIPEAQISKLIAIDDTTFLCAGTYKSRYQYLLFNKNDSVLDYGVDVYNAADSAFQTYTRYLSNQGNLVMNPEKHTFAGSINFSSNIDFFEIVNNKIELIKSLRLGDPINKPVNEEGIYYVDLTENTQTGYIDLSATSKYVYALYSDKKMYENNRKSDTVLVFDWDGNPIKKYSLDTDAYYIAVDSTQQSLFAAVKNSSSGWKIICYALD,not soluble
10,MSLSVVERIFNHSESRPDCIAVYENDRTISYENLASDIKKTAAKLVSLGVTSEDAVLVRSNNSYSFILLYFSIHYVGAKFVNVAPDSDVSYVSFIEDKVNPKLFIEKSQDFIRNIDSYTFDNIFPPQARGIADIMFTSGTTGEPKGVLLSHKSLVLATEHIISHVKNTNEDVELLLMPLSHSFAMARMRTSLFAGGAIVVGCSFKQLKSVFKAIEFYKVTGLGLVPSAWSYITLMTKDLIRKYSEQLNFIEFGSAHFPFEDKKQVAEWFPNTNVVMHYGLTEVSRATFIDFHNDDINAVGHRYRGADFKIIDNKGAEVIEGEEGEIVFKAPWMLDGYFENSQLTSDCFVEGYFKTGDLGRVVGDYLFLTGRLKEIINVGGKKVSPDQVEKVLSEALGVQECACAALSDANMGEVVQAYIVVKSGWDCENVISNIKETINGQLPMHMRPKKYSIVSALPKTVSGKVQRYKLSSEGHHHHHH,soluble
11,MLPTTSSLQIGELAAGQALTLPIYHFKPSGKHSGPKVYIQANVHGAEVQGNAVIYQLMKQLERCDILGEITLVPLANPLGINQKSGEFTLGRFDPITGVNWNREYLNHAIDLPTWYKEHAELSDSELIQAYRSTLVEACQRRLRNDWGVTTGHRLAVNLQAMAHEADIVLDLHTGPKSCKHLYCPEYDIASAQFFAIPYTLVIPNSFGGAMDEAAFCPWWQLSEVAKVMGRDLEIAVSAFTLELASQERICLEDALVDAKGILAYLSHRGVIAEQVEPAKMRRFGCYLKDYKKYHAPMAGLVEYVAPVGEPLAAGETLVNLLRLDLYGSEQELTALSLPQDCVPILHFASASVHQGTELYKVMTNLFELPH,soluble
12,MIVFYDSWCPMCTAVAEHTKKLDKKGKMKFVSFRNEDVVEKYELSQELQSKMEQRLYIFKNNKWYDGIQSIDVLAKAVPSYWFAVPFIKLSIVLGFGSKVYDYIANNRKLVPVGHCRGGVCEIPTKK,not soluble
13,SLQTLEKSVIGVRVAVEASPVGASRRAREGWRRPASRHEAGALPLPSEQHITFFKLRPGCLDFLRRVSQTFELYMYTMGTALHAATALRILDPKRRFFGRRVFSRQDAVNGLKAIERIFPHDQKMVLVVDDLECMWRYSPCCIKVQGYHYFADVSAADARRISPHSYTQWLSMARPFCNFLPSERIKLCRHVRRCLPSKDA,not soluble
14,MRTLLLAGGLLVLSGCSLLMPTPDPNRAWVDLDTQPDADLAAVEVDDKSWDRTRYFEVDPGTRELTVRYQFTVDPTNIGPVDSPLWRDCQLNLKFKDFSAGQRYRLEAGHIGFRPWAKLYDQDNRELARGREGRCAKV,not soluble
15,MVVGDFPIETDTIVIGAGPGGYVAAIRAAQLGQKVTIVEKGNLGGVCLNVGCIPSKALLHASHRFVEAQHSENLGVIAESVSLNFQKVQEFKSSVVNKLTGGVEGLLKGNKVNIVKGEAYFVDNNSLRVMDEKSAQTYNFKNAIIATGSRPIEIPNFKFGKRVIDSTGALNLQEVPGKLVVVGGGYIGSELGTAFANFGSEVTILEGAKDILGGFEKQMTQPVKKGMKEKGVEIVTEAMAKSAEETDNGVKVTYEAKGEEKTIEADYVLVTVGRRPNTDELGLEELGVKFADRGLLEVDKQSRTSISNIYAIGDIVPGLPLAHKASYEAKVAAEAIDGQAAEVDYIGMPAVCFTEPELATVGYSEAQAKEEGLAIKASKFPYAANGRALSLDDTNGFVKLITLKEDDTLIGAQVVGTGASDIISELGLAIEAGMNAEDIALTIHAHPTLGEMTMEAAEKAIGYPIHTM,not soluble
16,GPGSMAAIGGGSGDIEELLKQITNHPGVQGIIIVNTDGIPIRHTFQEHSRLLAVQYSALFQSLAMKARNAVLEIDNNNELLFLRVRTKKHEVLVAPDTKYLLIVIQQVESGDAVPNANGVSA,not soluble
17,MAFGWHSMHGSIIWFLQIAQLSTAISHDQNATAVHFLISNLFFLVSTGALWFELCAIFCDSSSSTSILSTSLLMLNYFSLKFSATGERHLVATNIAHIEAHTSIVGFMISLFTPLKETIITKYEMLVRT,soluble
18,MNIFYEESGQFKIAAIIQKNDATYQVDTPHGKRTKVKANNVFAEFDGDMAAFLENAQAQAADIDTDLLWEVCGEEEFTAEAIAEEYYGHAPTKTELAATLIALYAAPMYFYKKAKGVFKAAPEETLKQALAAIERKKQQDAQIDAWAEALKRGEMPSEIAADLKTILHAPDKQSLTYKAFTKAADALKTSAYELAKKTGGITSIPQYLQDGFEIKYFPKGTGFPDLALPEMPDLPKADVTAFSIDDESTTEVDDALSLTDLDNGTKRVGIHIAAPSLAVKPGDKMEKNIMERLSTVYFPGGKITMLPENWIAAFSLDAGAHRPAVSIYFDVDGEFNVGAPTCKIEAVNIATNLRIQAIEPHFNAETGLDEAGEMMFAHHQDLIWFYQFATALQKARGKYEPDRAPQYDYSIELDEEGKVSVVRRERGSPIDTLVSEMMILANSTWAQMLHDNDLPGLFRVQPTGKVRMSTKSEPHIGMGVQHYGWFTSPLRRAADYINQKQLISLIDDTAEPLYQNSDAELFAALRDFDAAYTAYADFQRQMEAYWSLVYLQQQGTSELTATILKEDLVRIEGLPLVTRATGIPFDALPKSQALFKITELDAEKQFVSLNYIKAVAPAGTTAGNAV,not soluble
19,MGSDKIHHHHHHMTRKRAKTHSVKKAPLFVLTSSPNPKRTTSNKSAGIWSYWTRRTAYAMSTHIIPRLQKVIDGEDQGGISKAVNWQGGGGFRYFRLAPTLIVNDKWGNQIINPDYNPEMLAEALAKLEGLPDFSWILELGSGFAFVGRQYRLEVNGDEFFIDLLFYHIRLKCYVVVELKAAAFKPEHAGQLNFYLAAVDAQVKAPDDNPTIGLLLCKTQNRLVAEYALSDIDKPIGIAEYELVRALPEPLVTNLPTVEQLESELSDWQEDGEFFGV,not soluble
20,MIPFVWGICMPTLRNPQYRAFARRKLYRRQDGKCFYCHRDLTTKKTGELALTIEHRKAKMKGGTDDLKNLVAACWHCNHHRGEQMNATKQRKEAKALSRQRRMLARDCRSKADSQADGKAHEQLASKVEGNGANRTPSVHTARSEGLGLEHHHHHH,soluble
21,MKKFTCVQDIGDLKSALAESFEIKKDRFKYVELGRNKTLLMIFFNSSLRTRLSTQKAALNLGMNVIVLDINQGAWKLETERGVIMDGDKPEHLLEAIPVMGCYCDIIGVRSFARFENREYDYNEVIINQFIQHSGRPVFSMEAATRHPLQSFADLITIEEYKKTARPKVVMTWAPHPRPLPQAVPNSFAEWMNATDYEFVITHPEGYELDPKFVGNARVEYDQMKAFEGADFIYAKNWAAYTGDNYGQILSTDRNWTVGDRQMAVTNNAYFMHCLPVRRNMIVTDDVIESPQSIVIPEAANREISATVVLKRLLENLPHHHHHH,soluble
22,MSSSIREEVHRHLGTVALMQPALHQQTHAPAPTEITHTLFRAYTRVPHDVGGEADVPIEYHEKEEEIWELNTFATCECLAWRGVWTAEERRRKQNCDVGQTVYLGMPYYGRWLLTAARILVDKQFVTLTELHNKIVEMRERVASGQGLGEYLPPKAK,soluble
